Assay: soluble on expression in E. coli; label from the status in PepcDB or PDB records

| Sequence | soluble on expression in E. coli |
| --- | --- |
| YSFIGSPVFSREFNISEMREYYLSFFEARGHTRINRYPVVARWRDDIYLTIASIADFQPFVTSGQVPPPANPLTISQPCIRLNDLDSVGRSGRHLTNFEMMAHHAFNRRDNEIYWKEHTLELCDELLNSLKVNPLAVTYKEEPWAGGGNAGPCVEVIVHGLELATLVFMDLKTDKKGDIEIKGETYSKMDNYIVDTGYGLERFVWASRGSPTIYDALFPGIVNELMGLAGIEHELNDSEYANI | not soluble |
| YTEEFDPSKYGMADSYDEQGNYIFPEGFDPETNEWLEGFDEQRQAWEARYAESERRFQLHTVQIEKNRVAAAEAAAAGEATNYSSESAEAAPAAANTEAEGGSLASDEQLAALREKLAGN | not soluble |

Source: the DeepSol protein solubility set
